Earlier results in article PMC9489792.

Columns and labels:
Glu85 = Glu85 (UniProt position 98, WARYAEWLFTT); settings: not stated (presumably the dark/ground state with protonated Schiff base)
Asp85 = Asp85 (UniProt position 98, WARYADWLFTT); settings: not stated (presumably the dark/ground state with protonated Schiff base)

Substance | pKa (Glu85) | pKa (Asp85)
Bacteriorhodopsin D85E mutant (BR-D85E) (Halobacterium salinarum (organism inferred; the article only says BR / bacteriorhodopsin); D85E) | 6.5 | 
Bacteriorhodopsin (BR) (Halobacterium salinarum (organism inferred; the article only says BR / bacteriorhodopsin)) |  | 3.6
